From the supplement of paper PMC10567573

B1: FCHO1 (parent)
chain: FSDPSQSDPETKDFWLNMAALTEA
B2: EPB41L3 (parent)
chain: SDYISEFRFAPNHTKELEDKVIEL

Variants of: B1
Experiment: protein stability index of a GFP-peptide fusion (GPS, HEK-293T) (PSI 1-6); higher = more stable
Settings: c terminus: a fixed tail appended
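Also: lentivirally expressed fusions sorted by FACS into six bins by GFP to DsRed ratio, PSI derived from sequencing read proportions per bin multiplied by bin number.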

Variant | protein stability index
S5R | 2.21
P4I | 3.33
K12E | 3.6
T11Y | 2.06
L16E | 4.87
D3N | 2.02
A24K | 3.38
S7I | 2.38
D3I | 1.71
T11H | 2.87
A24F | 2.56
P9M | 3.39
N17T | 3.03
Q6D | 3.3
N17W | 2.49
A24I | 1.92
S2W | 2.93
N17D | 1.85
K12R | 2.65
T22H | 3
D8A | 2.62
E10R | 2.29
T22N | 2.93
S7F | 2.63

Variant | protein stability index
M18Y | 3.59
D3K | 1.48
N17Q | 3.39
M18K | 2.91
W15V | 4.77
T22V | 3.44
K12T | 3.15
S7K | 2.8
K12I | 3.11
S7N | 2.86
M18T | 2.62
N17V | 1.88
P4W | 1.85
D13N | 1.27
W15G | 4.65
P9C | 2.68
L16D | 5.04
T11L | 2.13
P4K | 2.04
S7H | 3.39
Q6A | 2.91
E23Y | 2.1
Q6T | 2.68
F14Y | 3.98

Variant | protein stability index
S5V | 2.54
A20Q | 2.63
D3W | 2.72
F14R | 4.62
E10N | 1.9
L21S | 2.62
P4T | 2.23
L16S | 2.32
T11K | 2.49
F1P | 4.8
S2Q | 2.4
D13K | 2.33
P9V | 3.54
A19I | 2.47
F1S | 4.74
N17P | 1.94
F1C | 4.02
L16H | 2.3
W15S | 4.82
A20P | 2.96
L16V | 2.22
P4C | 1.99
K12L | 2.62
D13S | 1.47

Variant | protein stability index
D8M | 3.04
A24T | 2.52
F1I | 4.11
F1W | 4.1
D8R | 2.57
K12D | 4.39
D3T | 1.74
D8S | 2.71
F1G | 4.86
S2K | 4.22
F1N | 4.52
S7A | 3.37
P9G | 2.77
L16W | 2.31
E10Y | 2.14
M18S | 3.12
P9E | 4.01
E10K | 2.04
N17R | 3.06
M18D | 4.25
A24P | 2.06
E10S | 2.2
S2C | 1.69
E10T | 2.12

Variant | protein stability index
D13M | 1.43
M18C | 2.78
S2T | 2.11
A24G | 2.5
W15Q | 4.45
S2Y | 3.28
S5H | 2.87
K12Y | 2.97
D13E | 3.62
F14M | 4.12
A20H | 2.82
W15D | 5.32
P4S | 2.26
L21P | 2.32
W15I | 4.43
E10D | 3
S5W | 1.74
E10F | 1.94
L21H | 2.55
S5G | 2.66
A19P | 2.7
L21C | 2.4
M18N | 3.55
K12H | 3.2

Variant | protein stability index
W15N | 4.79
D13G | 2.96
D13V | 1.65
F14I | 3.61
W15Y | 4.38
L21E | 3.9
E23H | 2.17
L16K | 2.36
T11P | 3.38
A19R | 3.21
S2A | 1.7
P9T | 3.19
S2V | 1.93
S5Q | 3.21
N17H | 2.74
A24C | 2.36
E23W | 2.04
A24M | 2.62
Q6Y | 1.81
P4G | 2.38
A19L | 2.44
E10H | 1.97
L21V | 2.58
P9Q | 3.27

Variant | protein stability index
W15K | 4.85
K12W | 2.52
P9W | 2.4
D8C | 2.62
D3G | 1.74
E23S | 2.23
P4R | 2.02
F14K | 4.72
A19N | 2.41
T11W | 1.74
P9F | 2.76
T11I | 2.7
P9L | 2.77
S2H | 1.99
P4M | 2.21
Q6F | 2.65
F1T | 4.87
F14N | 4.76
P4A | 2.81
M18Q | 3.77
D13Y | 2.25
K12Q | 3.43
S7W | 2
F14Q | 4.75

Variant | protein stability index
S7P | 3.92
D3Q | 2.08
E23Q | 2.86
L21A | 2.63
E10C | 2.06
T22F | 3.23
M18E | 3.98
N17A | 2.56
E10W | 1.83
A24Y | 2.29
Q6W | 1.75
D3E | 2.73
D8Y | 2.23
F14H | 4.51
S7Y | 2.69
F14T | 4.57
F1V | 4.86
A20G | 2.65
P9Y | 2.65
E10V | 2.63
F14S | 4.78
A24S | 3.4
M18H | 3.22
P4E | 3.37

Variant | protein stability index
D3R | 2.06
S7V | 3.29
L21G | 2.52
S5D | 3.93
E23C | 1.63
A20Y | 2.44
N17I | 1.98
T22K | 2.61
M18L | 2.57
L21N | 2.88
F14C | 4.11
T11A | 3.11
D8W | 1.86
P4N | 2.04
W15P | 4.66
A20C | 2.34
Q6R | 2.44
P9R | 2.8
T11C | 2.92
A20E | 3.61
K12G | 3.23
E10I | 2.45
S7T | 2.74
S7M | 3.55

Variant | protein stability index
A24R | 3.38
D8G | 2.75
Q6M | 2.66
T22G | 2.53
F14L | 3.69
E23K | 2.3
A20F | 2.24
D13A | 2.09
P4L | 2.45
D8F | 2.37
D8V | 3.11
F1E | 4.97
S7Q | 3.18
M18G | 3.27
S5Y | 2.45
E23T | 2.79
E23L | 2.3
L16G | 2.41
T22A | 2.87
E23A | 2.15
S5I | 2.74
L21M | 2.77
F1Y | 3.26
S7L | 2.65

Variant | protein stability index
A19M | 2.54
P9A | 3.12
A19W | 2.09
N17M | 2.73
T22Q | 2.9
P9H | 2.73
N17E | 3.49
L21T | 2.75
P4Q | 2.67
K12P | 3.1
L16P | 4.08
M18F | 2.78
A20R | 2.81
D8P | 2.93
T11D | 4.34
E23F | 1.59
S7G | 2.6

Variants of: B2
Experiment: as above
Settings: c terminus: a fixed tail appended

Variant | protein stability index
S1A | 2.38
S1C | 1.75
S1D | 2.25
S1E | 2.15
S1F | 1.96
S1G | 2.12
S1H | 2.1
S1I | 1.71
S1K | 1.72
S1L | 2.19
S1M | 1.92
S1N | 1.94
S1P | 2.71
S1Q | 2.45
S1R | 1.85
S1T | 2.01
S1V | 1.74
S1W | 1.76
S1Y | 2.38
D2A | 2.21
D2C | 2.46
D2E | 2.48
D2F | 2.02
D2G | 1.45
D2H | 1.85
D2I | 1.9

Variant | protein stability index
D2K | 2.45
D2L | 2.18
D2M | 2.25
D2N | 1.88
D2P | 2.29
D2Q | 1.62
D2R | 2.02
D2S | 2.11
D2T | 1.95
D2V | 2.02
D2W | 1.89
D2Y | 1.75
Y3A | 2.76
Y3C | 2.38
Y3D | 4.03
Y3E | 4.43
Y3F | 1.91
Y3G | 2.94
Y3H | 2.91
Y3I | 1.86
Y3K | 2.69
Y3L | 2.08
Y3M | 2.29
Y3N | 3.18
Y3P | 2.4
Y3Q | 3.28

Variant | protein stability index
Y3R | 2.34
Y3S | 3.59
Y3T | 3.06
Y3V | 1.97
Y3W | 2.39
I4A | 3.63
I4C | 3.6
I4D | 4.2
I4E | 3.92
I4F | 2.77
I4G | 4.11
I4H | 3.96
I4K | 3.23
I4L | 2.36
I4M | 3.18
I4N | 4.27
I4P | 3.76
I4Q | 3.98
I4R | 3.13
I4S | 3.49
I4T | 2.65
I4V | 3.02
I4W | 3.03
I4Y | 3.65
S5A | 1.93
